Laboratory results from US7268110B2, “Agents for preventing and treating thrombocytopenia” (Chugai Seiyaku Kabushiki Kaisha, priority 1996, dated 2007).

Legend:
platelet = test: Effectiveness of PTH derivative, daily administration to mouse; type: in vivo; details: C57B1/6N mice, 200 μg/kg subcutaneously once a day for six days, blood 24 h after final administration
Protocol: Effectiveness of PTH Derivative
Ten-week old male C57B1/6N mice as purchased from Japan Charles River Co., Ltd. were used in the experiment.
Drug solutions to be administered were prepared basically from human PTH(1-84) and human PTH(1-34) by the same procedure as in Example 1 to give a drug concentration of 20 μg/mL.
Eighteen mice were divided into three groups, which were administered subcutaneously with the two drug solutions and a control (citrate buffer) for six days on a once-a-day basis in a volume of 10 mL/kg. […] The administration was initiated at 10 a.m.
After 24 h of the final administration, a blood sample was withdrawn from each mouse through the orbital vein. Peripheral corpuscle counts were obtained with an automatic corpuscle counter F-800 (TOA MEDICAL ELECTRONICS CO., LTD).

platelet counts [1] = test: Test for daily administration to rabbit (platelet increasing action); type: in vivo; details: rabbits, 200 μg/kg subcutaneously daily
Protocol: Test for Daily Administration to Rabbit
Six 12-15 week old male Japanese albino rabbits JW/CSK were used in the experiment. The animals were individually kept in aluminum rabbit bracket cages Rb-1 (350^w×500^d×350^h mm) in a vavarium in a specific pathogen-free environment under the following conditions: temperature, 24±2° C.; humidity, 50±10%; illumination, light turned on at 5:00 and turned off at 19:00; ventilation, 15 changes/hr. Each animal was supplied with 120 g of a radiation-sterilized feed for rabbits RM (purchased from Funahashi Farm) per day. The animals were also allowed to drink to tap water ad libitum from an automatic water feeder.
Human PTH(1-84) was administered in a volume of 2 mL/vial at a concentration of 200 μg/mL. A solvent was also supplied in a volume of 2 mL/vial. Both the drug and the control were stored at −135° C. until use.
PTH (200 μg/kg) was administered to the rabbits subcutaneously at the back of their neck for 13 consecutive days. The solvent was similarly administered in the same volume as the dose of a rh-PTH solution calculated from their body weight.
Blood samples (0.5 mL) were withdrawn from the rabbits through the lateral auricular vein before the administration and on days 2, 6, 9 and 13 during the administration period. […]

platelet counts [2] = test: Test for single-dose administration to mouse (platelet increasing action); type: in vivo; details: C57B1/6N mice, 10 μg/kg single dose through the tail vein
Protocol: Test for Single-Dose Administration to Mouse
Nine-week old male C57B1/6N mice as purchased from Japan Charles River Co. Ltd. were used in the experiment.
Human PTH(1-84) was dissolved in a citrate buffer (pH 5; containing 0.05% of Tween 80) at final concentrations of 1, 0.2 and 0.04 ˜g/mL so as to prepare the drug solutions to be administered.
Each of the thus prepared drug solutions and a control (citrate buffer) was administered to 15 mice through the tail vein in a volume of 10 mL/kg. […] The administration was initiated at 10 a.m.
After 3, 6 and 9 hours of the administration, five mice were picked up at random from each group of animals and blood samples were withdrawn through the orbital vein. At 10 a.m. on the same day, separate blood samples were taken from untreated mice (four in number) to obtain the preadministration value. Peripheral corpuscle counts were obtained with an automatic corpuscle counter F-800 (TOA MEDICAL ELECTRONICS CO., LTD.).

platelet count = test: Test for daily administration to mouse (platelet increasing action); type: in vivo; details: C57B1/6N mice; for platelet count: day 5
Protocol: Test for Daily Administration to Mouse
Nine-week old male C57B1/6N mice as purchased from Japan Charles River Co., Ltd. were used in the experiment.
Drug solutions to be administered were prepared basically by the same procedure as in Example 1 to give drug concentrations of 5, 20 and 80 μg/mL.
The mice under test were divided into four groups, which were administered subcutaneously with the three drug solutions and a control (citrate buffer) once a day in a volume of 10 mL/kg. […] The administration was initiated at 10 a.m.
On days 5, 7 and 9 after the start of administration, five or six mice were picked up at random from each group of animals and blood samples were withdrawn through the orbital vein. The sampling of blood was timed to occur 24 h of the final administration. Separate blood samples were taken from untreated mice (five in number) to obtain the value for normal mouse. Peripheral corpuscle counts were obtained with an automatic corpuscle counter F-800 (TOA MEDICAL ELECTRONICS CO., LTD.).

[3] = system: BFU-E (precursor cells of erythrocytes); details: report by Meytes et al, J. Clin. Invest. 1981; cited from earlier work
[4] = system: CFU-GM (precursor cells of granulocytes and macrophages); details: report by Meytes et al, J. Clin. Invest. 1981; cited from earlier work

Molecule | platelet increasing action (platelet) | platelet count relative to the initial level (platelet counts [1]; day 13) | platelet count relative to the initial value (platelet counts [1]; increase from day 2 until day 6) | platelet counts over the control (platelet counts [2]; 6 h after the administration) | platelet counts over the control (platelet counts [2]; 9 h after the administration) | platelet count (platelet count; 200 μg/kg subcutaneously once a day) | platelet count (platelet count; 800 μg/kg subcutaneously once a day) | platelet count vs the control (platelet count; all treated groups (50, 200 and 800 μg/kg subcutaneously once a day), day 7) | in vitro colony formation by BFU-E [3] | in vitro colony formation by CFU-GM [4]
human PTH(1-34) (SVSEIQLMHNLGKHLNSMERVEWLRKKLQDVHNF; Parathyroid hormone; UniProt P01270 32-65, looked up, fragment) [PTH(134), partial peptide of PTH composed of 34 amino acids as counted from the N terminus; purchased from Peptide Institute, Inc, reference compound] | comparable platelet increasing action to PTH(1-84) | – | – | – | – | – | – | – | – | –
human PTH(1-84) (protein, UniProt P01270 32-115, looked up, Parathyroid hormone) Parathyroid hormone: SVSEIQLMHNLGKHLNSMERVEWLRKKLQDVHNFVALGAPLAPRDAGSQRPRKKEDNVLVESHEKSLGEADKADVNVLTKAKSQ | platelet increasing action | substantially returned to the initial level | two to four | significant increase | significant increase | tendency to increase | tendency to increase | significantly higher | interfered | interfered
